Results: patent US20120316071A1 (published 2012)

Target: T1, Recombinant Human DLL4 (delta-like protein 4) (human, UniProt Q9NR61 27-524)
T1 construct: Bought recombinant human DLL4 (R&D Systems Cat#1506-D4/CF) coated on the ELISA plate; also called rHuman DLL4; Delta-like ligand 4
Test: ELISA, DLL4 coated on plate, 100 nM Fab

Binder | ELISA Signal-blank (100 nM Fab)
Fab VH5-51_IGHD5-18*01>3_IGHJ4*01 G100K/G104T G24T/S28R/G35V (H:KT TRV) & V3-4_IGLJ1*01 V91L/S96P S57I (Fab, V domains shown, Fab made in E. coli: VH in plasmid A (CH1, His6 and Flag tags), VL in plasmid E (lambda CL); also called H:KT TRV & L:LP S57I) VH: EVQLVQSGAEVKKPGESLKISCKTSGYRFTSYWIVWVRQMPGKGLEWMGIIYPGDSDTRYSPSFQGQVTISADKSISTAYLQWSSLKASDTAMYYCARRKYSYTYDYFDYWGQGTLVTVSS VL: QTVVTQEPSFSVSPGGTVTLTCGLSSGSVSTSYYPSWYQQTPGQAPRTLIYSTNTRISGVPDRFSGSILGNKAALTITGAQADDESDYYCLLYMGPGISYVFGTGTKVTVL | 0.24
Fab VH5-51_IGHD5-18*01>3_IGHJ4*01 G100K/G104T G24T/S28R/G35V (H:KT TRV) & V3-4_IGLJ1*01 V91L/S96P S57E (Fab, V domains shown, Fab made in E. coli: VH in plasmid A (CH1, His6 and Flag tags), VL in plasmid E (lambda CL); also called H:KT TRV & L:LP S57E) VH: EVQLVQSGAEVKKPGESLKISCKTSGYRFTSYWIVWVRQMPGKGLEWMGIIYPGDSDTRYSPSFQGQVTISADKSISTAYLQWSSLKASDTAMYYCARRKYSYTYDYFDYWGQGTLVTVSS VL: QTVVTQEPSFSVSPGGTVTLTCGLSSGSVSTSYYPSWYQQTPGQAPRTLIYSTNTRESGVPDRFSGSILGNKAALTITGAQADDESDYYCLLYMGPGISYVFGTGTKVTVL | 0.2
Fab VH5-51_IGHD5-18*01>3_IGHJ4*01 G100K/G104T G24T/S28R/G35V (H:KT TRV) & V3-4_IGLJ1*01 V91L/S96P S57H (Fab, V domains shown, Fab made in E. coli: VH in plasmid A (CH1, His6 and Flag tags), VL in plasmid E (lambda CL); also called H:KT TRV & L:LP S57H) VH: EVQLVQSGAEVKKPGESLKISCKTSGYRFTSYWIVWVRQMPGKGLEWMGIIYPGDSDTRYSPSFQGQVTISADKSISTAYLQWSSLKASDTAMYYCARRKYSYTYDYFDYWGQGTLVTVSS VL: QTVVTQEPSFSVSPGGTVTLTCGLSSGSVSTSYYPSWYQQTPGQAPRTLIYSTNTRHSGVPDRFSGSILGNKAALTITGAQADDESDYYCLLYMGPGISYVFGTGTKVTVL | 0.21
Fab VH5-51_IGHD5-18*01>3_IGHJ4*01 G100K/G104T G24T/S28R/G35V (H:KT TRV) & V3-4_IGLJ1*01 V91L/S96P S57G (Fab, V domains shown, Fab made in E. coli: VH in plasmid A (CH1, His6 and Flag tags), VL in plasmid E (lambda CL); also called H:KT TRV & L:LP S57G) VH: EVQLVQSGAEVKKPGESLKISCKTSGYRFTSYWIVWVRQMPGKGLEWMGIIYPGDSDTRYSPSFQGQVTISADKSISTAYLQWSSLKASDTAMYYCARRKYSYTYDYFDYWGQGTLVTVSS VL: QTVVTQEPSFSVSPGGTVTLTCGLSSGSVSTSYYPSWYQQTPGQAPRTLIYSTNTRGSGVPDRFSGSILGNKAALTITGAQADDESDYYCLLYMGPGISYVFGTGTKVTVL | 0.23
Fab VH5-51_IGHD5-18*01>3_IGHJ4*01 G100K/G104T G24T/S28R/G35V (H:KT TRV) & V3-4_IGLJ1*01 V91L/S96P S57F (Fab, V domains shown, Fab made in E. coli: VH in plasmid A (CH1, His6 and Flag tags), VL in plasmid E (lambda CL); also called H:KT TRV & L:LP S57F) VH: EVQLVQSGAEVKKPGESLKISCKTSGYRFTSYWIVWVRQMPGKGLEWMGIIYPGDSDTRYSPSFQGQVTISADKSISTAYLQWSSLKASDTAMYYCARRKYSYTYDYFDYWGQGTLVTVSS VL: QTVVTQEPSFSVSPGGTVTLTCGLSSGSVSTSYYPSWYQQTPGQAPRTLIYSTNTRFSGVPDRFSGSILGNKAALTITGAQADDESDYYCLLYMGPGISYVFGTGTKVTVL | 0.1

Continued, values first:

ELISA Signal-blank (100 nM Fab) | Binder
0.3 | Fab VH5-51_IGHD5-18*01>3_IGHJ4*01 G100K/G104T G24T/S28R/G35V (H:KT TRV) & V3-4_IGLJ1*01 V91L/S96P S57L (Fab, V domains shown, Fab made in E. coli: VH in plasmid A (CH1, His6 and Flag tags), VL in plasmid E (lambda CL); also called H:KT TRV & L:LP S57L) VH: EVQLVQSGAEVKKPGESLKISCKTSGYRFTSYWIVWVRQMPGKGLEWMGIIYPGDSDTRYSPSFQGQVTISADKSISTAYLQWSSLKASDTAMYYCARRKYSYTYDYFDYWGQGTLVTVSS VL: QTVVTQEPSFSVSPGGTVTLTCGLSSGSVSTSYYPSWYQQTPGQAPRTLIYSTNTRLSGVPDRFSGSILGNKAALTITGAQADDESDYYCLLYMGPGISYVFGTGTKVTVL
0.3 | Fab VH5-51_IGHD5-18*01>3_IGHJ4*01 G100K/G104T G24T/S28R/G35V (H:KT TRV) & V3-4_IGLJ1*01 V91L/S96P S57M (Fab, V domains shown, Fab made in E. coli: VH in plasmid A (CH1, His6 and Flag tags), VL in plasmid E (lambda CL); also called H:KT TRV & L:LP S57M) VH: EVQLVQSGAEVKKPGESLKISCKTSGYRFTSYWIVWVRQMPGKGLEWMGIIYPGDSDTRYSPSFQGQVTISADKSISTAYLQWSSLKASDTAMYYCARRKYSYTYDYFDYWGQGTLVTVSS VL: QTVVTQEPSFSVSPGGTVTLTCGLSSGSVSTSYYPSWYQQTPGQAPRTLIYSTNTRMSGVPDRFSGSILGNKAALTITGAQADDESDYYCLLYMGPGISYVFGTGTKVTVL
0.24 | Fab VH5-51_IGHD5-18*01>3_IGHJ4*01 G100K/G104T G24T/S28R/G35V (H:KT TRV) & V3-4_IGLJ1*01 V91L/S96P S57N (Fab, V domains shown, Fab made in E. coli: VH in plasmid A (CH1, His6 and Flag tags), VL in plasmid E (lambda CL); also called H:KT TRV & L:LP S57N) VH: EVQLVQSGAEVKKPGESLKISCKTSGYRFTSYWIVWVRQMPGKGLEWMGIIYPGDSDTRYSPSFQGQVTISADKSISTAYLQWSSLKASDTAMYYCARRKYSYTYDYFDYWGQGTLVTVSS VL: QTVVTQEPSFSVSPGGTVTLTCGLSSGSVSTSYYPSWYQQTPGQAPRTLIYSTNTRNSGVPDRFSGSILGNKAALTITGAQADDESDYYCLLYMGPGISYVFGTGTKVTVL
0.36 | Fab VH5-51_IGHD5-18*01>3_IGHJ4*01 G100K/G104T G24T/S28R/G35V (H:KT TRV) & V3-4_IGLJ1*01 V91L/S96P S57P (Fab, V domains shown, Fab made in E. coli: VH in plasmid A (CH1, His6 and Flag tags), VL in plasmid E (lambda CL); also called H:KT TRV & L:LP S57P) VH: EVQLVQSGAEVKKPGESLKISCKTSGYRFTSYWIVWVRQMPGKGLEWMGIIYPGDSDTRYSPSFQGQVTISADKSISTAYLQWSSLKASDTAMYYCARRKYSYTYDYFDYWGQGTLVTVSS VL: QTVVTQEPSFSVSPGGTVTLTCGLSSGSVSTSYYPSWYQQTPGQAPRTLIYSTNTRPSGVPDRFSGSILGNKAALTITGAQADDESDYYCLLYMGPGISYVFGTGTKVTVL
0.17 | Fab VH5-51_IGHD5-18*01>3_IGHJ4*01 G100K/G104T G24T/S28R/G35V (H:KT TRV) & V3-4_IGLJ1*01 V91L/S96P S57K (Fab, V domains shown, Fab made in E. coli: VH in plasmid A (CH1, His6 and Flag tags), VL in plasmid E (lambda CL); also called H:KT TRV & L:LP S57K) VH: EVQLVQSGAEVKKPGESLKISCKTSGYRFTSYWIVWVRQMPGKGLEWMGIIYPGDSDTRYSPSFQGQVTISADKSISTAYLQWSSLKASDTAMYYCARRKYSYTYDYFDYWGQGTLVTVSS VL: QTVVTQEPSFSVSPGGTVTLTCGLSSGSVSTSYYPSWYQQTPGQAPRTLIYSTNTRKSGVPDRFSGSILGNKAALTITGAQADDESDYYCLLYMGPGISYVFGTGTKVTVL
